We go through 17 molecules from patent US20210301029A1 (LYVGEN BIOPHARMA, published 2021).

For one experiment, the target named is T1, human FcγRIIB (human, UniProt P31994 43-310).
T1 construct: whole, on cells; also called CD32b; FcγR2B
T1 sequence (looked up): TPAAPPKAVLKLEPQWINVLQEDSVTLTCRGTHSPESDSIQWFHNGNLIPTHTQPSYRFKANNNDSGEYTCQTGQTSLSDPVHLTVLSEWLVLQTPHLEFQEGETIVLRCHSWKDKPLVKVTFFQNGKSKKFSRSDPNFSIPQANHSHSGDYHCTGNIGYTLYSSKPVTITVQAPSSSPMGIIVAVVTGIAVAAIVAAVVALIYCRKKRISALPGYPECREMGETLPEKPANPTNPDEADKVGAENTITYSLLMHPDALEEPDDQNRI
Nature of the experiment: FACS on CHO cells expressing human FcγRIIB (MFI). The procedure:
(§1) For FACS analysis of the IgG mutants' binding to different FcγRs, FcγR overexpressing CHO cells were harvested using trypsin-EDTA and were suspended in cold staining buffer (3% BSA in PBS). Test IgG mutants, which were diluted in staining buffer, were added into the cells. The mixture was incubated at 4° C. for 2 hours, and then washed twice with cold staining buffer and re-suspended in PE-labeled anti-human IgG followed by incubation at 4° C. for 2 hours. The mixture was washed twice with staining buffer and re-suspended in 2% PFA in PBS for FACS.

The next experiment deals with T2, human FcγRI (human, UniProt P12314 16-374).
T2 construct: whole, on cells; also called CD64
T2 sequence (P12314 16-374): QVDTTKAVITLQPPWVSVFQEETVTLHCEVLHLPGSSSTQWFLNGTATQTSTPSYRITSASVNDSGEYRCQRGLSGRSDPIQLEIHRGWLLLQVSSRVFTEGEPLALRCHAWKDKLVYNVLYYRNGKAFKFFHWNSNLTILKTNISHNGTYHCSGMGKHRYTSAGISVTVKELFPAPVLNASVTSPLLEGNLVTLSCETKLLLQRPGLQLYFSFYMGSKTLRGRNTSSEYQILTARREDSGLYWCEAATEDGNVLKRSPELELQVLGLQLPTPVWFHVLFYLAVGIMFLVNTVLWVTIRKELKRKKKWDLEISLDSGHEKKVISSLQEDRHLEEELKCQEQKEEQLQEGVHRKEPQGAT
Nature of the experiment: FACS on CHO cells expressing human FcγRI (MFI). The procedure:
as §1

The target in a further experiment is T3, human FcγRIII (human, UniProt P08637 17-254).
T3 construct: whole, on cells; also called FcγRIIIA; CD16a
T3 sequence (P08637 17-254): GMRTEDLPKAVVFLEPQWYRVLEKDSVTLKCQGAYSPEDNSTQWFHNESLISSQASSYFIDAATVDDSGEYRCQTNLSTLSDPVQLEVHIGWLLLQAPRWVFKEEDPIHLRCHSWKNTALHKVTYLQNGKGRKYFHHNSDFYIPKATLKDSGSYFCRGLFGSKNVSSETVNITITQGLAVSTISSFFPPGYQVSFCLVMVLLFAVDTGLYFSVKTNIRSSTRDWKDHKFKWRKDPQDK
Nature of the experiment: FACS on CHO cells expressing human FcγRIIIA (MFI). The procedure: as §1

B1: 383-huIgG1m2 (antibody)
heavy: not shown
light: DIQMTQSPSSVSASVGDRVTITCRASQGIYSWLAWYQQKPGKAPNLLIYTASTLQSGVPSRFSGSGSGTDFTLTISSLQPEDFATYYCQQANIFPLTFGGGTKVEIKRTVAAPSVFIFPPSDEQLKSGTASVVCLLNNFYPREAKVQWKVDNALQSGNSQESVTEQDSKDSTYSLSSTLTLSKADYEKHKVYACEVTHQGLSSPVTKSFNRGEC
notes: also called 383-G1m2
In the case of B1, in the experiment with human FcγRIIB, the binding result is reported as “binds”.

B2: 383-huIgG4mAA (antibody)
heavy: not shown
light: DIQMTQSPSSVSASVGDRVTITCRASQGIYSWLAWYQQKPGKAPNLLIYTASTLQSGVPSRFSGSGSGTDFTLTISSLQPEDFATYYCQQANIFPLTFGGGTKVEIKRTVAAPSVFIFPPSDEQLKSGTASVVCLLNNFYPREAKVQWKVDNALQSGNSQESVTEQDSKDSTYSLSSTLTLSKADYEKHKVYACEVTHQGLSSPVTKSFNRGEC
Regarding B2, the binding result with human FcγRIIB and in the experiment with human FcγRI was “binds” in each case.

B3: 383-huIgG1 (antibody)
heavy chain: not shown
light chain: DIQMTQSPSSVSASVGDRVTITCRASQGIYSWLAWYQQKPGKAPNLLIYTASTLQSGVPSRFSGSGSGTDFTLTISSLQPEDFATYYCQQANIFPLTFGGGTKVEIKRTVAAPSVFIFPPSDEQLKSGTASVVCLLNNFYPREAKVQWKVDNALQSGNSQESVTEQDSKDSTYSLSSTLTLSKADYEKHKVYACEVTHQGLSSPVTKSFNRGEC
notes: anti-CD40 antibody 383 on a wild-type human IgG1 constant region
Regarding B3, the binding result with human FcγRIIB and in the experiment with human FcγRI was “binds” throughout.

B4: 383-huIgG4m2 (antibody)
heavy: not shown
light: DIQMTQSPSSVSASVGDRVTITCRASQGIYSWLAWYQQKPGKAPNLLIYTASTLQSGVPSRFSGSGSGTDFTLTISSLQPEDFATYYCQQANIFPLTFGGGTKVEIKRTVAAPSVFIFPPSDEQLKSGTASVVCLLNNFYPREAKVQWKVDNALQSGNSQESVTEQDSKDSTYSLSSTLTLSKADYEKHKVYACEVTHQGLSSPVTKSFNRGEC
For B4, the figures for the binding result in the experiment with human FcγRIIB and with human FcγRIII were “binds” and “no binding (tested: 30 µg/mL)”, respectively.

B5: 383-huIgG1m49 (antibody)
heavy: not shown
light: DIQMTQSPSSVSASVGDRVTITCRASQGIYSWLAWYQQKPGKAPNLLIYTASTLQSGVPSRFSGSGSGTDFTLTISSLQPEDFATYYCQQANIFPLTFGGGTKVEIKRTVAAPSVFIFPPSDEQLKSGTASVVCLLNNFYPREAKVQWKVDNALQSGNSQESVTEQDSKDSTYSLSSTLTLSKADYEKHKVYACEVTHQGLSSPVTKSFNRGEC
Regarding B5, the binding result in the experiment with human FcγRIIB and with human FcγRI was “binds” throughout.

B6: 383-huIgG1m50 (antibody)
heavy: not shown
light: DIQMTQSPSSVSASVGDRVTITCRASQGIYSWLAWYQQKPGKAPNLLIYTASTLQSGVPSRFSGSGSGTDFTLTISSLQPEDFATYYCQQANIFPLTFGGGTKVEIKRTVAAPSVFIFPPSDEQLKSGTASVVCLLNNFYPREAKVQWKVDNALQSGNSQESVTEQDSKDSTYSLSSTLTLSKADYEKHKVYACEVTHQGLSSPVTKSFNRGEC
As for B6, the binding result in the experiment with human FcγRIIB and with human FcγRI was “binds” throughout.

B7: 383-huIgG4m40 (antibody)
heavy: not shown
light: DIQMTQSPSSVSASVGDRVTITCRASQGIYSWLAWYQQKPGKAPNLLIYTASTLQSGVPSRFSGSGSGTDFTLTISSLQPEDFATYYCQQANIFPLTFGGGTKVEIKRTVAAPSVFIFPPSDEQLKSGTASVVCLLNNFYPREAKVQWKVDNALQSGNSQESVTEQDSKDSTYSLSSTLTLSKADYEKHKVYACEVTHQGLSSPVTKSFNRGEC
In the case of B7, the binding result in the experiment with human FcγRIIB and in the experiment with human FcγRIII was “no binding (tested: 30 µg/mL)” each time.

B8: 383-huIgG2m43 (antibody)
heavy: not shown
light: DIQMTQSPSSVSASVGDRVTITCRASQGIYSWLAWYQQKPGKAPNLLIYTASTLQSGVPSRFSGSGSGTDFTLTISSLQPEDFATYYCQQANIFPLTFGGGTKVEIKRTVAAPSVFIFPPSDEQLKSGTASVVCLLNNFYPREAKVQWKVDNALQSGNSQESVTEQDSKDSTYSLSSTLTLSKADYEKHKVYACEVTHQGLSSPVTKSFNRGEC
With B8, the binding result in the experiment with human FcγRIII and in the experiment with human FcγRI was “no binding (tested: 30 µg/mL)” in each case.

B9: 383-huIgG1m240 (antibody)
heavy: not shown
light: DIQMTQSPSSVSASVGDRVTITCRASQGIYSWLAWYQQKPGKAPNLLIYTASTLQSGVPSRFSGSGSGTDFTLTISSLQPEDFATYYCQQANIFPLTFGGGTKVEIKRTVAAPSVFIFPPSDEQLKSGTASVVCLLNNFYPREAKVQWKVDNALQSGNSQESVTEQDSKDSTYSLSSTLTLSKADYEKHKVYACEVTHQGLSSPVTKSFNRGEC
As to B9, the binding result with human FcγRI is on record as “no binding (tested: 30 µg/mL)”.

B10: 383-huIgG1m47 (antibody)
heavy: not shown
light: DIQMTQSPSSVSASVGDRVTITCRASQGIYSWLAWYQQKPGKAPNLLIYTASTLQSGVPSRFSGSGSGTDFTLTISSLQPEDFATYYCQQANIFPLTFGGGTKVEIKRTVAAPSVFIFPPSDEQLKSGTASVVCLLNNFYPREAKVQWKVDNALQSGNSQESVTEQDSKDSTYSLSSTLTLSKADYEKHKVYACEVTHQGLSSPVTKSFNRGEC
Regarding B10, the binding result is “binds” with human FcγRIIB and “no binding (tested: 30 µg/mL)” with human FcγRI.

B11: 383-huIgG4m46 (antibody)
heavy: not shown
light: DIQMTQSPSSVSASVGDRVTITCRASQGIYSWLAWYQQKPGKAPNLLIYTASTLQSGVPSRFSGSGSGTDFTLTISSLQPEDFATYYCQQANIFPLTFGGGTKVEIKRTVAAPSVFIFPPSDEQLKSGTASVVCLLNNFYPREAKVQWKVDNALQSGNSQESVTEQDSKDSTYSLSSTLTLSKADYEKHKVYACEVTHQGLSSPVTKSFNRGEC
For B11, the binding result with human FcγRIIB is given as “binds”; with human FcγRIII, “no binding (tested: 30 µg/mL)”.

B12: 383-huIgG1m27 (antibody)
heavy: not shown
light: DIQMTQSPSSVSASVGDRVTITCRASQGIYSWLAWYQQKPGKAPNLLIYTASTLQSGVPSRFSGSGSGTDFTLTISSLQPEDFATYYCQQANIFPLTFGGGTKVEIKRTVAAPSVFIFPPSDEQLKSGTASVVCLLNNFYPREAKVQWKVDNALQSGNSQESVTEQDSKDSTYSLSSTLTLSKADYEKHKVYACEVTHQGLSSPVTKSFNRGEC
B12: the binding result in the experiment with human FcγRIIB was “binds”.

B13: 383-huIgG4mPE (antibody)
heavy: not shown
light: DIQMTQSPSSVSASVGDRVTITCRASQGIYSWLAWYQQKPGKAPNLLIYTASTLQSGVPSRFSGSGSGTDFTLTISSLQPEDFATYYCQQANIFPLTFGGGTKVEIKRTVAAPSVFIFPPSDEQLKSGTASVVCLLNNFYPREAKVQWKVDNALQSGNSQESVTEQDSKDSTYSLSSTLTLSKADYEKHKVYACEVTHQGLSSPVTKSFNRGEC
As to B13, the binding result with human FcγRIIB and with human FcγRI was “binds” each time.

B14: 383-huIgG2m2040 (antibody)
heavy: not shown
light: DIQMTQSPSSVSASVGDRVTITCRASQGIYSWLAWYQQKPGKAPNLLIYTASTLQSGVPSRFSGSGSGTDFTLTISSLQPEDFATYYCQQANIFPLTFGGGTKVEIKRTVAAPSVFIFPPSDEQLKSGTASVVCLLNNFYPREAKVQWKVDNALQSGNSQESVTEQDSKDSTYSLSSTLTLSKADYEKHKVYACEVTHQGLSSPVTKSFNRGEC
As to B14, the binding result with human FcγRIII and in the experiment with human FcγRI was “no binding (tested: 30 µg/mL)” each time.

B15: 383-huIgG1m45 (antibody)
heavy: not shown
light: DIQMTQSPSSVSASVGDRVTITCRASQGIYSWLAWYQQKPGKAPNLLIYTASTLQSGVPSRFSGSGSGTDFTLTISSLQPEDFATYYCQQANIFPLTFGGGTKVEIKRTVAAPSVFIFPPSDEQLKSGTASVVCLLNNFYPREAKVQWKVDNALQSGNSQESVTEQDSKDSTYSLSSTLTLSKADYEKHKVYACEVTHQGLSSPVTKSFNRGEC
As for B15, the binding result in the experiment with human FcγRIIB is on record as “binds”; with human FcγRI, “no binding (tested: 30 µg/mL)”.

B16: 383-huIgG1mAAG (antibody)
heavy: not shown
light: DIQMTQSPSSVSASVGDRVTITCRASQGIYSWLAWYQQKPGKAPNLLIYTASTLQSGVPSRFSGSGSGTDFTLTISSLQPEDFATYYCQQANIFPLTFGGGTKVEIKRTVAAPSVFIFPPSDEQLKSGTASVVCLLNNFYPREAKVQWKVDNALQSGNSQESVTEQDSKDSTYSLSSTLTLSKADYEKHKVYACEVTHQGLSSPVTKSFNRGEC
notes: Anti-CD40 antibody 383 with Fc variant G1mAAG; also called G1mAG
As to B16, the binding result with human FcγRIIB and with human FcγRIII was “no binding (tested: 30 µg/mL)” throughout.

B17: 383-huIgG4m30 (antibody)
heavy: not shown
light: DIQMTQSPSSVSASVGDRVTITCRASQGIYSWLAWYQQKPGKAPNLLIYTASTLQSGVPSRFSGSGSGTDFTLTISSLQPEDFATYYCQQANIFPLTFGGGTKVEIKRTVAAPSVFIFPPSDEQLKSGTASVVCLLNNFYPREAKVQWKVDNALQSGNSQESVTEQDSKDSTYSLSSTLTLSKADYEKHKVYACEVTHQGLSSPVTKSFNRGEC
B17: the binding result with human FcγRIII and with human FcγRI was “no binding (tested: 30 µg/mL)” throughout.
